From publication PMC9490040, “Mechanistic insight into the RNA-stimulated ATPase activity of tick-borne encephalitis virus helicase”

Biological target: NS3H (NS3 helicase domain) WT (Tick-borne encephalitis virus strain …, UniProt Q01299 1662-2110)
Test: fluorescence anisotropy; 1 mM Mg2+; no nucleotide; apparent KD; 20 mM Tris-HCl pH 7.5, 100 mM NaCl, 1 mM MgCl2, 7.5% glycerol; 45 min at 30 C; […]
Details: protein: recombinant; tags: N-terminal 10xHis (pET-19b); label: 5' 6-FAM; single strand

NS3H (NS3 helicase domain) WT, sequence (Q01299 1662-2110): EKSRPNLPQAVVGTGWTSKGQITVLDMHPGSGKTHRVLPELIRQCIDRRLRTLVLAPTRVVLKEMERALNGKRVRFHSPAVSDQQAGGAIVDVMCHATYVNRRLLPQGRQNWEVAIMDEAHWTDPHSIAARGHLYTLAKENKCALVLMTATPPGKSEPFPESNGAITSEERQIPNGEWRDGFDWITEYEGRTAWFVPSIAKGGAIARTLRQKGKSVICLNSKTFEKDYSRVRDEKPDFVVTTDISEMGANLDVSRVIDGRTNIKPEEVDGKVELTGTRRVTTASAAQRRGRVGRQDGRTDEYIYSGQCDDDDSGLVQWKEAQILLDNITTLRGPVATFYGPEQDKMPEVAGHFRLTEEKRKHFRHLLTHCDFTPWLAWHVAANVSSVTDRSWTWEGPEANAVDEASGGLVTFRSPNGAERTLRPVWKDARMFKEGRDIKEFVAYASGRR

B1: 6-FAM-ssRNA12 (ssRNA)
RNA: AGAUUUUCUUGC
- Kd: 49.7 ± 9.3 nM
